Laboratory results taken from patent US20160017326A1, “MICRORNAS AS FUNCTIONAL MEDIATORS AND BIOMARKERS OF BONE METASTASIS” (THE TRUSTEES OF PRINCETON UNIVERSITY, priority 2013, published 2016).

Key:
[1] = tested on: miRNA expression in RAW264.7 cells; experiment: qRT-PCR of osteoclast miRNA expression after sICAM1 treatment; type: cell-based, murine; conditions: for sICAM1-induced miRNA expression changes: 50 ng/ml sICAM1, 20 μM inhibitor, 6 days
Protocol: (§1) mRNA was analyzed by synthesizing cDNA using the Superscript III First-strand kit (Invitrogen) and qPCR performed using the Power SYBR® green PCR master mix (Applied Biosystems). Mature miRNAs were reverse transcribed using the TaqMan Reverse Transcription Kit (Applied Biosystems) followed by real-time PCR using TaqMan miRNA assays (Applied Biosystems). All analysis was performed using an ABI 7900HT PCR machine according to the manufacturer's instructions. A standard curve was created from serial dilutions from cDNA for each gene of interest. Values were normalized by the expression of GAPDH or RNU6B in each sample.

RANKL = experiment: cell-based or functional assay
[2] = tested on: osteoclast marker genes in RAW264.7 cells; experiment: qRT-PCR of osteoclast marker genes; type: cell-based, murine; conditions: sICAM1 together with 50 ng/ml RANKL versus RANKL alone
Protocol: as §1

RAW264.7 cells [3] = experiment: Chemotaxis assay of RAW264.7 cells; type: cell-based, murine; conditions: series of sICAM1 concentrations
Protocol: Chemotaxis assay was performed as described (Lu et al., 2011) with the following modifications: 10^5 RAW264.7 cells in 100 μl of 0.5% BSA in DMEM were seeded into the upper chamber of 8 μm pore transwell inserts (BD Bioscience) in a 24-well plate. 300 μl of 0.5% BSA in DMEM containing a series of concentrations of recombinant ICAM1 (R&D Systems) was added to the bottom chamber. After 8 h in culture, methanol was added to the bottom chamber to fix migrated cells. Cells in the upper chamber were removed with a cotton swab and stained for 30 mins in 0.2% crystal violet for quantification using a microscope.

RAW264.7 cells [4] = experiment: RANKL-induced osteoclast differentiation, TRAP staining; type: cell-based, murine; conditions: for osteoclast differentiation / TRAP+ osteoclasts: 6 days
Excerpt: HeLa and RAW264.7 cells (American Type Culture Collection, ATCC) were maintained in Dulbecco's modified Eagle's medium (DMEM) supplemented with 10% fetal bovine serum (FBS), penicillin/streptomycin (GIBCO), and fungizone. MOCP-5 cells were maintained in αMEM with 10% FBS and antibiotics. MDA-MB-231 parental cells (ATCC) and all sublines (SCP2, SCP4, SCP6, SCP28, SCP46) were maintained in DMEM with 10% FBS and antibiotics. The murine 4T1 and 4T1.2 cells, and human TSU-Pr1, and TSU-PR1-B2 cells were similarly maintained in DMEM with 10% FBS and antibiotics. For osteoclast differentiation assays, cells were treated with indicated concentration of RANKL in DMEM plus 10% FBS, with media changes performed every 2 days. Primary osteoclasts were isolated from bone marrow cells flushed from the tibia of 6-week-old wild type Balb/c mice and filtered through a […] cell-strainer before overnight culture in aMEM with 10% FBS. The following day 1×10^6 non-adherent cells were plated in 6-well plates supplemented with 50 ng/mL M-CSF for 2 days, followed by 50 ng/mL RANKL for an additional 4-5 days, with media changes every 2 days. Human osteoclasts were obtained from Lonza (2T-110) and differentiated by treatment with 33 ng/ml M-CSF and 66 ng/ml RANKL. CM was collected from the indicated sub-confluent tumor cells grown in DMEM with […] for 24 hours. The CM was passed through a 0.2 μm filter before addition to 1×10^5 RAW264.7 or MOCP-5 cells in a 6-well plate. The media was replaced with fresh CM daily. Cells were TRAP stained on day 6 using a leukocyte acid phosphatase kit (Sigma) and TRAP^+-multineucliated cells were quantified as mature osteoclasts. […]

RAW264.7 cells [5] = experiment: In vitro bone resorption assay on bovine bone slices; type: cell-based, murine; conditions: miRNA transfection, 50 ng/ml RANKL, relative to control cells
Protocol: 5×10^4 pre-osteoclast cells were seeded onto 1 mm thick slices of bovine bone cut using a diamond saw and sterilized by immersion in 70% ethanol. Cells were cultured for 10 days as indicated in 6-well plates, transferred to fresh plates and washed to remove osteoclasts. Bone slices were stained in a solution of 1% toludine blue in 0.5% sodium tetraborate, destained in PBS plus 1% Triton X-100, and imaged by light microscopy.
In vitro bone resorption assay was then used to measure the effect of ectopic miRNA expression on osteoclast activity. […] Referring to this figures, scale bar represents 200 μm. Results were statistically significant with p<0.01 (**) and p<0.001 (***). […] Since these miRNAs may inhibit osteoclast differentiation or function by targeting different mRNAs, the repression of osteoclast differentiation was further examined using combinations of inhibitory miRNAs. Given that transient transfection with 10 pM of miRNA precursors was sufficient to inhibit up to approximately 90% of osteoclast differentiation, RAW264.7 cells were treated with a combination of miRNAs at a reduced concentration of 1 pM total precursors.

[6] = tested on: Pu.1, Nfatc1, Ctsk in RAW264.7 cells; experiment: Western blot of Pu.1, Nfatc1, Ctsk after miRNA transfection and RANKL; type: cell-based, murine; conditions: transient miRNA transfection, 50 ng/ml RANKL
Protocol: SDS lysis buffer (0.05 mM Tris-HCl, 50 mM BME, 2% SDS, 0.1% Bromophenol blue, 10% glycerol) was used to collect protein from cells. Samples were sonicated and heat denatured protein was equally loaded, separated on a 10% SDS-page gel, transferred onto a pure nitrocellulose membrane (BioRad), and blocked with 5% milk. Primary antibodies for immunoblotting included: anti-IκBα (1:1000 dilution, Cell signaling, 44D4), anti-p-p65 (1:500 dilution, Santa Cruz Biotechnology), anti-Pu.1 (5 μg/ml, Abcam, AB88082), anti-Nfatc1 (1 μg/ml, Abcam, AB25916), anti-Ctsk (4 μg/ml, Abcam, AB19027), anti-β-actin (1:5000 dilution, ABcam), for loading control. Membranes were incubated with horseradish peroxidase (HRP)-conjugated anti-mouse secondary antibody (1:2000 dilution, GE Healthcare) or anti-rabbit secondary antibody (1:2000 dilution, GE Healthcare) for 1 h and chemiluminescence signals were detected by ECL substrate (GE Healthcare).
To better examine the capacity of the miRNAs to inhibit osteoclast differentiation, osteoclast markers were examined in RAW264.7 cells transfected with the miRNA of interest, followed by RANKL treatment. FIG. 5F illustrates Western blot analysis for Pu.1, Nfatc1, or Ctsk in RAW264.7 cells after transient transfection with indicated miRNA and treatment with 50 ng/ml RANKL. Data in the figure represent average ±SEM; p values were based on Student's t-test.

O=C(Nc1cc(Cl)cc2c1[nH]c1cnccc12)c1cccnc1 [PS1145]
sICAM1-induced miRNA expression changes [1]: abrogated | sICAM1-induced miRNA expression changes ([1]; listed as PS1154): higher levels of miRNA expression

OPG (receptor)
decrease in osteoclast differentiation of RAW264.7 cells induced by 30 ng/ml RANKL, with 200 ng/ml OPG (RANKL): > 80%

B1: sICAM1: soluble ICAM1, the cleaved extracellular domain of ICAM1; recombinant ICAM1 (R&D Systems, 796-IC-050) (protein)
chain: QVSIHPREAFLPQGGSVQVNCSSSCKEDLSLGLETQWLKDELESGPNWKLFELSEIGEDSSPLCFENCGTVQSSASATITVYSFPESVELRPLPAWQQVGKDLTLRCHVDGGAPRTQLSAVLLRGEEILSRQPVGGHPKDPKEITFTVLASRGDHGANFSCRTELDLRPQGLALFSNVSEARSLRTFDLPATIPKLDTPDLLEVGTQQKLFCSLEGLFPASEARIYLELGGQMPTQESTNSSDSVSATALVEVTEEFDRTLPLRCVLELADQILETQRTLTVYNFSAPVLTLSQLEVSEGSQVTVKCEAHSGSKVVLLSGVEPRPPTPQVQFTLNASSEDHKRSFFCSAALEVAGKFLFKNQTLELHVLYGPRLDETDCLGNWTWQEGSQQTLKCQAWGNPSPKMTCRRKADGALLPIGVVKSVKQEMNGTYVCHAFSSHGNVTRNVYLTVLYHSQNN
time course of osteoclast marker gene expression [2]: reduced the time necessary for osteoclast differentiation | RAW264.7 cell migration (RAW264.7 cells [3]): increased migration in a dose dependent manner | expression of miRNAs downregulated during osteoclastogenesis ([1]; 50 ng/ml sICAM1, magnified after co-treatment with RANKL): significant inhibition | osteoclast differentiation (RAW264.7 cells [4]; 50 ng/ml sICAM1 alone): not sufficient to induce differentiation | time to osteoclast differentiation (RAW264.7 cells [4]; 50 ng/ml sICAM1 and 50 ng/ml RANKL together): ≤ 2 days | osteoclast differentiation (RAW264.7 cells [4]; 50 ng/ml sICAM1 combined with 10 ng/ml RANKL): additive effect | TRAP+ osteoclasts (RAW264.7 cells [4]; 50 ng/ml sICAM1 with 4 ng/ml RANKL): high levels | TRAP+ osteoclasts (RAW264.7 cells [4]; low levels of sICAM1 with 4 ng/ml RANKL): no effect

B2: miR-33a: miRNA, SEQ ID NO: 74; delivered as pre-miRNA precursor; down-regulated during osteoclastogenesis (nucleic acid, listed as Homo sapiens)
chain: CUGUGGUGCAUUGUAGUUGCAUUGCAUGUUCUGGUGGUACCCAUGCAAUGUUUCCACAGUGCAUCACAG
modifications: pre-miRNA precursor hairpin, chemistry not given here
bone resorption (osteoclast activity) (RAW264.7 cells [5]): only a small decrease in bone resorption | osteoclast maturation and activity (RAW264.7 cells [4]; all models tested): Partial inhibition | expression of Pu.1, Nfatc1, Ctsk (Western blot) [6]: retained expression of all three osteoclast genes
